Measured values from paper PMC6555802.

Biological target: CHML (fluorescence titration) (human) (UniProt P26374)
Test: other fluorescence titration; fluorescence titration assay (Supplementary Fig. 8); conditions not stated in the text shown

CHML (fluorescence titration) (human), sequence (P26374 whole entry): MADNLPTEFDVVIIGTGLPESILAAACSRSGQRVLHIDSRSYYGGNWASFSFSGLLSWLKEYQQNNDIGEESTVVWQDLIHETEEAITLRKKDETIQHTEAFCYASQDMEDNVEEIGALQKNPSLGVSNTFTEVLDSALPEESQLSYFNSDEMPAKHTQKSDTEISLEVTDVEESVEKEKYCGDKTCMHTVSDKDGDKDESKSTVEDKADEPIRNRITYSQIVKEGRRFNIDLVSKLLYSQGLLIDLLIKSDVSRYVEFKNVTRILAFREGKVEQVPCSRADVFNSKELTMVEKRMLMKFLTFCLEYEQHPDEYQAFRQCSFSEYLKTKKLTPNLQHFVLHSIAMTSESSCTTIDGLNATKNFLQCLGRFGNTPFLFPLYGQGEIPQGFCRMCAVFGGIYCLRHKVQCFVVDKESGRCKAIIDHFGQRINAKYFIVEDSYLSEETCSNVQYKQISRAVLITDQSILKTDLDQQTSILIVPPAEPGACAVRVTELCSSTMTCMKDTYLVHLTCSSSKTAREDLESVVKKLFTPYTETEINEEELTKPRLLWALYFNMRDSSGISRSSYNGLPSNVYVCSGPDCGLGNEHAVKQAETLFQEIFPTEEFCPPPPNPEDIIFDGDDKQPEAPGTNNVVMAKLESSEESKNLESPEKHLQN

## Rab7A (fluorescence titration) (from UniProt P51149 1-207) (natural protein)
  Kd: 7.84 nM
